Measured values published in patent publication US20100120171A1.

What was measured:
[1] = target: recombinant fragment of human VE-cadherin extracellular region, CAD 1-4 fragment (Asp48-Glu478, preceded by Met), SEQ ID NO: 4 (human) (UniProt P33151); assay: sandwich ELISA, BV9 capture, rabbit polyclonal detection; CAD1-4 at 1.25 ng/mL
[2] = target: recombinant fragment of human VE-cadherin extracellular region, CAD 1-4 fragment (Asp48-Glu478, preceded by Met), SEQ ID NO: 4 (human) (UniProt P33151); assay: sandwich ELISA, BV9 capture, rabbit polyclonal detection; CAD1-4 at 10 ng/mL
[3] = target: recombinant fragment of human VE-cadherin extracellular region, CAD 1-4 fragment (Asp48-Glu478, preceded by Met), SEQ ID NO: 4 (human) (UniProt P33151); assay: sandwich ELISA, BV9 capture, rabbit polyclonal detection; CAD1-4 at 0.63 ng/mL; mean OD minus OD at 0 ng/mL
[4] = target: recombinant fragment of human VE-cadherin extracellular region, CAD 1-4 fragment (Asp48-Glu478, preceded by Met), SEQ ID NO: 4 (human) (UniProt P33151); assay: sandwich ELISA, BV9 capture, rabbit polyclonal detection; CAD1-4 at 5 ng/mL
[5] = target: recombinant fragment of human VE-cadherin extracellular region, CAD 1-4 fragment (Asp48-Glu478, preceded by Met), SEQ ID NO: 4 (human) (UniProt P33151); assay: sandwich ELISA, BV9 capture, rabbit polyclonal detection; CAD1-4 at 1.25 ng/mL; second replicate
[6] = target: recombinant fragment of human VE-cadherin extracellular region, CAD 1-4 fragment (Asp48-Glu478, preceded by Met), SEQ ID NO: 4 (human) (UniProt P33151); assay: sandwich ELISA, BV9 capture, rabbit polyclonal detection; CAD1-4 at 0.63 ng/mL; second replicate
[7] = target: recombinant fragment of human VE-cadherin extracellular region, CAD 1-4 fragment (Asp48-Glu478, preceded by Met), SEQ ID NO: 4 (human) (UniProt P33151); assay: sandwich ELISA, BV9 capture, rabbit polyclonal detection; CAD1-4 at 5 ng/mL; mean OD minus OD at 0 ng/mL
[8] = target: recombinant fragment of human VE-cadherin extracellular region, CAD 1-4 fragment (Asp48-Glu478, preceded by Met), SEQ ID NO: 4 (human) (UniProt P33151); assay: sandwich ELISA, BV9 capture, rabbit polyclonal detection; CAD1-4 at 5 ng/mL; remark: listed apart in the source
[9] = target: recombinant fragment of human VE-cadherin extracellular region, CAD 1-4 fragment (Asp48-Glu478, preceded by Met), SEQ ID NO: 4 (human) (UniProt P33151); assay: sandwich ELISA, BV9 capture, rabbit polyclonal detection; CAD1-4 at 10 ng/mL; first replicate
[10] = target: recombinant fragment of human VE-cadherin extracellular region, CAD 1-4 fragment (Asp48-Glu478, preceded by Met), SEQ ID NO: 4 (human) (UniProt P33151); assay: sandwich ELISA, BV9 capture, rabbit polyclonal detection; CAD1-4 at 5 ng/mL; first replicate
[11] = target: circulating (soluble) human VE-cadherin, 90 kDa form, in human serum or plasma (human) (UniProt P33151); assay: western blot of healthy human serum diluted 1/500, BV9 tested from 0.02 to 1 µg/mL
[12] = target: recombinant fragment of human VE-cadherin extracellular region, CAD 1-4 fragment (Asp48-Glu478, preceded by Met), SEQ ID NO: 4 (human) (UniProt P33151); assay: sandwich ELISA, BV9 capture, rabbit polyclonal detection; CAD1-4 at 5 ng/mL; mean OD minus OD at 0 ng/mL; remark: listed apart in the source
[13] = target: recombinant fragment of human VE-cadherin extracellular region, CAD 1-4 fragment (Asp48-Glu478, preceded by Met), SEQ ID NO: 4 (human) (UniProt P33151); assay: sandwich ELISA, BV9 capture, rabbit polyclonal detection; CAD1-4 at 1.25 ng/mL; mean OD minus OD at 0 ng/mL
[14] = target: recombinant fragment of human VE-cadherin extracellular region, CAD 1-4 fragment (Asp48-Glu478, preceded by Met), SEQ ID NO: 4 (human) (UniProt P33151); assay: sandwich ELISA, BV9 capture, rabbit polyclonal detection; CAD1-4 at 1.25 ng/mL; remark: listed apart in the source
[15] = target: recombinant fragment of human VE-cadherin extracellular region, CAD 1-4 fragment (Asp48-Glu478, preceded by Met), SEQ ID NO: 4 (human) (UniProt P33151); assay: sandwich ELISA, BV9 capture, rabbit polyclonal detection; CAD1-4 at 2.5 ng/mL; first replicate
[16] = target: recombinant fragment of human VE-cadherin extracellular region, CAD 1-4 fragment (Asp48-Glu478, preceded by Met), SEQ ID NO: 4 (human) (UniProt P33151); assay: sandwich ELISA, BV9 capture, rabbit polyclonal detection; CAD1-4 at 2.5 ng/mL; mean OD minus OD at 0 ng/mL
[17] = target: recombinant fragment of human VE-cadherin extracellular region, CAD 1-4 fragment (Asp48-Glu478, preceded by Met), SEQ ID NO: 4 (human) (UniProt P33151); assay: SDS-PAGE and western blot of the purified fragment with BV9
[18] = target: recombinant fragment of human VE-cadherin extracellular region, CAD 1-4 fragment (Asp48-Glu478, preceded by Met), SEQ ID NO: 4 (human) (UniProt P33151); assay: sandwich ELISA, BV9 capture, rabbit polyclonal detection; CAD1-4 at 10 ng/mL; mean OD minus OD at 0 ng/mL
[19] = target: recombinant fragment of human VE-cadherin extracellular region, CAD 1-4 fragment (Asp48-Glu478, preceded by Met), SEQ ID NO: 4 (human) (UniProt P33151); assay: sandwich ELISA, BV9 capture, rabbit polyclonal detection; CAD1-4 at 0.63 ng/mL; mean OD minus OD at 0 ng/mL; remark: listed apart in the source

Substance: anti-VEcadherin mouse mAb, clone BV9 (Abcam, product datasheet ab7047) (antibody)
- OD1 [1]: 0.867 OD
- OD2 [1]: 0.829 OD
- mean OD [1]: 0.848 OD
- OD1 [2]: 1.76 OD
- OD2 [2]: 1.76 OD
- mean OD [2]: 1.76 OD
- Corr. OD [3]: 0.051 OD
- mean OD [4]: 1.4 OD
- OD [5]: 0.932 OD
- OD [6]: 0.899 OD
- Corr. OD [7]: 0.512 OD
- OD1 [8]: 1.31 OD
- OD2 [8]: 1.21 OD
- mean OD [8]: 1.26 OD
- OD [9]: 1.9 OD
- OD [10]: 1.34 OD
- lowest mAb concentration giving detection [11]: 0.02 µg/mL
- mAb concentration at signal plateau [11]: 0.1 to 1 µg/mL
- Corr. OD [12]: 0.556 OD
- Corr. OD [13]: 0.143 OD
- mean OD [14]: 1 OD
- OD [15]: 1.26 OD
- Corr. OD [16]: 0.282 OD
- lowest detectable quantity [17]: 1 ng
- Corr. OD [18]: 1.06 OD
- Corr. OD [19]: 0.087 OD
